Experimental data reported in PMC8190030.

Experiments:
Details in all cases: remark: other sources report otherwise
[1] = biological target: T1, N- (neural) cadherin of human fibroblasts (human (endogenous in primary fibroblasts)), P19022; assay: AFM single-cell force spectroscopy; living cell on a conA-coated tipless cantilever against a cell monolayer in a Petri dish; approach and retract velocity 3 µm/sec, maximum loading force 3 nN, contact time 2 s; 5% CO2; cadherin type assigned from immunofluorescence
T1 chain: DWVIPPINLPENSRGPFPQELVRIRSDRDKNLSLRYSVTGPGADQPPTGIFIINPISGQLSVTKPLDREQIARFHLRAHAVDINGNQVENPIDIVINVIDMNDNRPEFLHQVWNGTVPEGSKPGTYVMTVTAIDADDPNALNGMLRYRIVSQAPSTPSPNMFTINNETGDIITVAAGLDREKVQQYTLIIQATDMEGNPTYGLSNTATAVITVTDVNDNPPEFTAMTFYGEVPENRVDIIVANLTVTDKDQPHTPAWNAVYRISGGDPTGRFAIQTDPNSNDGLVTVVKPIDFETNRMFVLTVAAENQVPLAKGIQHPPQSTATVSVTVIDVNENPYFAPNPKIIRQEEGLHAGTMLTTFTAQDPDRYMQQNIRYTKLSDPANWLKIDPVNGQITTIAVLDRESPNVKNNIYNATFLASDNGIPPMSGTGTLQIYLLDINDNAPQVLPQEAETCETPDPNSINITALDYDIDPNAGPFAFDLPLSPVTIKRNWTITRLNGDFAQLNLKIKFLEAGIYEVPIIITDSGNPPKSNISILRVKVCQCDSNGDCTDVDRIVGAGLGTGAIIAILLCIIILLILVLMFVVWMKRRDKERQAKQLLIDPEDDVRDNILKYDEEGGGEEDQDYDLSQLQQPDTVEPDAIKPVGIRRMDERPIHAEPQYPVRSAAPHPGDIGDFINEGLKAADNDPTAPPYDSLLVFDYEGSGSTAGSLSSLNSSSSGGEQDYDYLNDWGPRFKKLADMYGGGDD

[2] = biological target: T1, N- (neural) cadherin of human …; assay: AFM single-cell force spectroscopy; DMSO control of the drug series; cell on cantilever against cell monolayer
[3] = biological target: T1, N- (neural) cadherin of human …; assay: AFM single-cell force spectroscopy; as a1, approach and retract velocity 7.5 µm/sec
[4] = biological target: T1, N- (neural) cadherin of human …; assay: AFM single-cell force spectroscopy; control of the drug series (no drug and no DMSO); cell on cantilever against cell monolayer; velocity not stated for this series
[5] = biological target: T1, N- (neural) cadherin of human …; assay: AFM single-cell force spectroscopy; DMSO control of the drug series; cell on cantilever against cell monolayer
[6] = biological target: T1, N- (neural) cadherin of human …; assay: AFM single-cell force spectroscopy; as a1, approach and retract velocity 5 µm/sec
[7] = biological target: T1, N- (neural) cadherin of human …; assay: AFM single-cell force spectroscopy; with 5 µM ML-7 (myosin light chain kinase inhibited); cell on cantilever against cell monolayer
[8] = biological target: T1, N- (neural) cadherin of human …; assay: AFM single-cell force spectroscopy; as a1, approach and retract velocity 10 µm/sec
[9] = biological target: T1, N- (neural) cadherin of human …; assay: AFM single-cell force spectroscopy; control of the drug series (no drug and no DMSO); cell on cantilever against cell monolayer; velocity not stated for this series
[10] = biological target: T1, N- (neural) cadherin of human …; assay: AFM single-cell force spectroscopy; with 5 µM cytochalasin D (actin filaments disassembled); cell on cantilever against cell monolayer

B1: N- (neural) cadherin of human fibroblasts, P19022 160-906 (natural protein)
chain: DWVIPPINLPENSRGPFPQELVRIRSDRDKNLSLRYSVTGPGADQPPTGIFIINPISGQLSVTKPLDREQIARFHLRAHAVDINGNQVENPIDIVINVIDMNDNRPEFLHQVWNGTVPEGSKPGTYVMTVTAIDADDPNALNGMLRYRIVSQAPSTPSPNMFTINNETGDIITVAAGLDREKVQQYTLIIQATDMEGNPTYGLSNTATAVITVTDVNDNPPEFTAMTFYGEVPENRVDIIVANLTVTDKDQPHTPAWNAVYRISGGDPTGRFAIQTDPNSNDGLVTVVKPIDFETNRMFVLTVAAENQVPLAKGIQHPPQSTATVSVTVIDVNENPYFAPNPKIIRQEEGLHAGTMLTTFTAQDPDRYMQQNIRYTKLSDPANWLKIDPVNGQITTIAVLDRESPNVKNNIYNATFLASDNGIPPMSGTGTLQIYLLDINDNAPQVLPQEAETCETPDPNSINITALDYDIDPNAGPFAFDLPLSPVTIKRNWTITRLNGDFAQLNLKIKFLEAGIYEVPIIITDSGNPPKSNISILRVKVCQCDSNGDCTDVDRIVGAGLGTGAIIAILLCIIILLILVLMFVVWMKRRDKERQAKQLLIDPEDDVRDNILKYDEEGGGEEDQDYDLSQLQQPDTVEPDAIKPVGIRRMDERPIHAEPQYPVRSAAPHPGDIGDFINEGLKAADNDPTAPPYDSLLVFDYEGSGSTAGSLSSLNSSSSGGEQDYDYLNDWGPRFKKLADMYGGGDD
[1]
  median rupture force (NF–NF cells): 51.9 pN
  median rupture force (SF–SF cells): 45.2 pN
[2]
  median rupture force (NF–NF cells): 52 pN
  median rupture force (SF–SF cells): 53.1 pN
[3]
  median rupture force (NF–NF cells): 97.2 pN
  median rupture force (SF–SF cells): 103 pN
[4]
  median rupture force (NF–NF cells): 61.9 pN
  median rupture force (SF–SF cells): 58.4 pN
[5]
  median rupture force (NF–NF cells): 60.2 pN
  median rupture force (SF–SF cells): 48.3 pN
[6]
  median rupture force (NF–NF cells): 73.4 pN
  median rupture force (SF–SF cells): 74.2 pN
[7]
  median rupture force (NF–NF cells): 48.9 pN
  median rupture force (SF–SF cells): 49 pN
[8]
  median rupture force (NF–NF cells): 117 pN
  median rupture force (SF–SF cells): 129 pN
[9]
  median rupture force (NF–NF cells): 58.8 pN
  median rupture force (SF–SF cells): 66.2 pN
[10]
  median rupture force (NF–NF cells): 31.1 pN
  median rupture force (SF–SF cells): 30.5 pN
